Measurements taken from paper PMC4794571.

Columns and labels:
[1] = biological target: IgE (cited assays) (human) (UniProt P01854); assay: filter binding; conditions: PBSMTB for IgE microarrays (full recipe not in material; PBS-based wash: 8.1 mM Na2HPO4, 137 mM NaCl, 1 mM MgCl2, pH 7.4), temperature not stated, thrombin …, cited from earlier work
[2] = biological target: Cy3-IgE (direct labeling) (UniProt P01854); assay: microarray fluorescence; conditions: direct label, PBSMTB for IgE microarrays (full recipe not in material; PBS-based wash: 8.1 mM Na2HPO4, 137 mM NaCl, 1 mM MgCl2, pH 7.4), temperature not stated, thrombin …
[3] = biological target: biotin-IgE (indirect labeling) (UniProt P01854); assay: microarray fluorescence; conditions: indirect label, PBSMTB for IgE microarrays (full recipe not in material; PBS-based wash: 8.1 mM Na2HPO4, 137 mM NaCl, 1 mM MgCl2, pH 7.4), temperature not stated, thrombin …
[4] = biological target: IgE (cited assays) (human) (UniProt P01854); assay: SPR; conditions: PBSMTB for IgE microarrays (full recipe not in material; PBS-based wash: 8.1 mM Na2HPO4, 137 mM NaCl, 1 mM MgCl2, pH 7.4), temperature not stated, thrombin …, cited from earlier work
[5] = biological target: IgE (cited assays) (human) (UniProt P01854); assay: fluorescence anisotropy; conditions: not immobilized; PBSMTB for IgE microarrays (full recipe not in material; PBS-based wash: 8.1 mM Na2HPO4, 137 mM NaCl, 1 mM MgCl2, pH 7.4); temperature not stated; thrombin …; cited from earlier work
[6] = G linker, G linker to array surface
[7] = T linker, T linker to array surface
[8] = A linker, A linker to array surface
[9] = C linker, C linker to array surface

CACGTTTATCCGTCCCTCCTAGTGGCGTG [IgE_17-1, cited assay]
Kd ([1]; solution): 82 nM

GGGGCACGTTTATCCGTCCCTCCTAGTGGCGTGCCCC [IgE_17-4, G linker]
Kd [2, 6]: 86.5 nM | Kd [3, 6]: 29.5 nM

CACGTTTATCCGTCCCTCCTAGTGGCGTG [IgE_17-1 (IgE_D17-1)]
Kd [3, 7]: 73.4 nM

GGGGCACGTTTATCCGTCCCTCCTAGTGGCGTGCCCC [IgE_17-4, A linker]
Kd [2, 8]: 63.7 nM | Kd [3, 8]: 30.9 nM

GGGGCACGTTTATCCGTCCCTCCTAGTGGCGTGCCCC [IgE_17-4, cited assays]
Kd ([4]; aptamer immobilized on surface): 74.8 nM | Kd ([4]; aptamer not immobilized): 4.7 nM | Kd ([1]; not immobilized): 9 nM | Kd [5]: 15 nM

AGGGCACGTTTATCCGTCCCTCCTAGTGGCGTGCCCT [IgE_D17-4_DM1_37]
Kd [2, 7]: 82.3 nM | Kd [3, 7]: 29.9 nM

TGGGCACGTTTATCCGTCCCTCCTAGTGGCGTGCCCC [IgE_D17-4_SM1]
Kd [2, 7]: 79.9 nM | Kd [3, 7]: 28.8 nM

GGGGCACGTTTATCCGTCCCTCCTAGTGGCGTGCCCC [IgE_17-4, C linker]
Kd [2, 9]: 61.8 nM | Kd [3, 9]: 30.8 nM

GGGGCACGTTTATCCGTCCCTCCTAGTGGCGTGCCCC [IgE_17-4 (IgE_D17-4), T linker]
Kd ([2]; D/P 2.4, T linker 10-15, T linker to array surface): 66.3 nM | Kd [3, 7]: 29.5 nM
